Measured values: the Immune Epitope Database (IEDB)

Tests used:
HLA-A*02:02 = assay: IEDB peptide-MHC binding, purified MHC/competitive/radioactivity; filed as Kd, often an IC50 or EC50 that approximates it; ≥ and ≤ were set here for values at or beyond the usual limits of such assays
HLA-A*02:03 [1] = assay: as above
HLA-A*02:06 = assay: as above
HLA-A*68:02 = assay: as above
HLA-A*26:01 = assay: as above; conditions: source organism: Dengue virus 2 Jamaica/1409/1983
HLA-A*03:01 [2] = assay: as above; conditions: source organism: Vaccinia virus WR
HLA-A*11:01 [3] = assay: as above; conditions: source organism: Vaccinia virus WR
HLA-B*51:01 = assay: as above; conditions: source organism: Vaccinia virus WR
HLA-B*54:01 = assay: as above; conditions: source organism: Vaccinia virus WR
HLA-A*02:01 [4] = assay: as above
HLA-B*53:01 = assay: as above; conditions: source organism: Vaccinia virus WR
HLA-B*35:01 = assay: as above; conditions: source organism: Vaccinia virus WR
HLA-A*33:01 = assay: as above; conditions: source organism: Vaccinia virus WR
HLA-B*07:02 = assay: as above; conditions: source organism: Vaccinia virus WR
HLA-A*68:01 = assay: as above; conditions: source organism: Vaccinia virus WR
HLA-A*31:01 = assay: as above; conditions: source organism: Vaccinia virus WR
HLA-B*57:01 = assay: as above
HLA-B*15:01 = assay: IEDB peptide-MHC binding, purified MHC/competitive/fluorescence; ≥ and ≤ were set here for values at or beyond the usual limits of such assays; conditions: source organism: Zaire ebolavirus
HLA-A*03:01 [5] = assay: as above; conditions: source organism: Zaire ebolavirus
HLA-A*11:01 [6] = assay: as above; conditions: source organism: Zaire ebolavirus
HLA-A*02:01 [7] = assay: as above; conditions: source organism: Zaire ebolavirus
HLA-A*69:01 = assay: IEDB peptide-MHC binding, purified MHC/competitive/fluorescence; filed as Kd, often an IC50 or EC50 that approximates it; ≥ and ≤ were set here for values at or beyond the usual limits of such assays; conditions: source organism: Homo sapiens
HLA-A*02:01 [8] = assay: as above; conditions: source organism: Homo sapiens
HLA-A*02:03 [9] = assay: as above; conditions: source organism: Homo sapiens
[10] = source organism: Mammarenavirus brazilense
[11] = source organism: Vaccinia virus WR
[12] = source organism: Dengue virus 1 Brazil/97-11/1997
[13] = source organism: Trypanosoma cruzi

Question: With AINIALIAV as the sequence, how does the Kd (HLA-A*02:02; [10]) read?
Answer: Its Kd is 766 nM.

Question: And the Kd (HLA-A*02:03 [1]; [10])?
Answer: The Kd was 46.7 nM.

Question: And the Kd (HLA-A*02:06; [10])?
Answer: The Kd was 681 nM.

Question: What about the Kd (HLA-A*68:02; [10]) of the same sequence?
Answer: The Kd was 1300 nM.

Question: How did the Kd (HLA-A*68:02; source organism: Homo sapiens) turn out when ALKTELEDTL was run?
Answer: Its Kd is at least 60000 nM.

Question: Which results are given for EIVDLMCHA?
Answer: Kd (HLA-A*26:01): 1580 nM; Kd (HLA-A*68:02; source organism: Dengue virus 2 Jamaica/1409/1983): 44 nM

Question: Which Kd (HLA-A*68:02; source organism: Homo sapiens) does the source give for ETVSEESNV here?
Answer: The Kd was 44 nM.

Question: With EVVMAYVGIK as the sequence, how does the Kd (HLA-A*03:01 [2]) read?
Answer: The Kd was 413 nM.

Question: And the Kd (HLA-A*11:01 [3])?
Answer: The Kd was 97.7 nM.

Question: What about the Kd (HLA-B*51:01) of the same sequence?
Answer: The Kd was at least 23200 nM.

Question: And the Kd (HLA-B*54:01)?
Answer: The Kd was 7930 nM.

Question: And the Kd (HLA-A*02:02; [11])?
Answer: The Kd was 12000 nM.

Question: What about the Kd (HLA-A*02:01 [4]; [11]) of the same sequence?
Answer: Its Kd is 4000 nM.

Question: And the Kd (HLA-B*53:01)?
Answer: The Kd was 6770 nM.

Question: And the Kd (HLA-B*35:01)?
Answer: The Kd was at least 23300 nM.

Question: And the Kd (HLA-A*33:01)?
Answer: Its Kd is 1170 nM.

Question: And the Kd (HLA-B*07:02)?
Answer: Its Kd is 9980 nM.

Question: And the Kd (HLA-A*02:03 [1]; [11])?
Answer: Its Kd is 15900 nM.

Question: What about the Kd (HLA-A*02:06; [11]) of the same sequence?
Answer: Its Kd is 15000 nM.

Question: What about the Kd (HLA-A*68:01) of the same sequence?
Answer: The Kd was 6.68 nM.

Question: And the Kd (HLA-A*68:02; [11])?
Answer: Its Kd is 2580 nM.

Question: What about the Kd (HLA-A*31:01) of the same sequence?
Answer: The Kd was 786 nM.

Question: With FASGRKSITL as the sequence, how does the Kd (HLA-B*57:01; source organism: Dengue virus 4 Philippines/H241/1956) read?
Answer: Its Kd is 6170 nM.

Question: With FIAFLRFLA as the sequence, how does the Kd (HLA-A*68:02; [12]) read?
Answer: The Kd was at most 1 nM.

Question: Which results are given for GLLLLLLLLG?
Answer: Kd (HLA-A*02:02; [13]): 456 nM; Kd (HLA-A*02:01 [4]; [13]): 171 nM; Kd (HLA-A*02:03 [1]; [13]): 330 nM; Kd (HLA-A*02:06; [13]): 420 nM; Kd (HLA-A*68:02; [13]): 1790 nM

Question: Which Kd (HLA-B*57:01; [12]) does the source give for GTSGSPIVNR here?
Answer: Its Kd is 104 nM.

Question: For IALGVATAH, which IC50 (HLA-B*15:01) is on record?
Answer: Its IC50 is 61100 nM.

Question: And the IC50 (HLA-A*03:01 [5])?
Answer: Its IC50 is at least 160000 nM.

Question: And the IC50 (HLA-A*11:01 [6])?
Answer: Its IC50 is 10800 nM.

Question: And the IC50 (HLA-A*02:01 [7])?
Answer: Its IC50 is at least 223000 nM.

Question: Which results are given for IRVEGNLRV?
Answer: Kd (HLA-A*69:01): ≥ 20000 nM; Kd (HLA-A*02:01 [8]): ≥ 20000 nM; Kd (HLA-A*02:03 [9]): ≥ 20000 nM
